The series concerns the molecule itself. As to the kind of experiment: cryo-EM structure.

B1: Escherichia coli mechanosensitive channel of small conductance MscS, wild type (natural protein, E. coli, UniProt P0C0S1 1-286, looked up)
chain: MEDLNVVDSINGAGSWLVANQALLLSYAVNIVAALAIIIVGLIIARMISNAVNRLMISRKIDATVADFLSALVRYGIIAFTLIAALGRVGVQTASVIAVLGAAGLAVGLALQGSLSNLAAGVLLVMFRPFRAGEYVDLGGVAGTVLSVQIFSTTMRTADGKIIVIPNGKIIAGNIINFSREPVRRNEFIIGVAYDSDIDQVKQILTNIIQSEDRILKDREMTVRLNELGASSINFVVRVWSNSGDLQNVYWDVLERIKREFDAAGISFPYPQMDVNFKRVKEDKAA
As for B1, the “stoichiometry N” value was found to be 7.

The values above are taken from paper doi:10.1101/2024.01.22.576751 (bioRxiv, 2024).
